# T1: wild-type human CCR7 (pcDNA3.1 Neo-hCCR7, 20100121357) (human, UniProt P32248 25-378)
# T1 construct: Expressed on transfected 293T, CHO AM1/D or HEK293T cells; also called huCCR7; CCR7 receptor
# T1 sequence: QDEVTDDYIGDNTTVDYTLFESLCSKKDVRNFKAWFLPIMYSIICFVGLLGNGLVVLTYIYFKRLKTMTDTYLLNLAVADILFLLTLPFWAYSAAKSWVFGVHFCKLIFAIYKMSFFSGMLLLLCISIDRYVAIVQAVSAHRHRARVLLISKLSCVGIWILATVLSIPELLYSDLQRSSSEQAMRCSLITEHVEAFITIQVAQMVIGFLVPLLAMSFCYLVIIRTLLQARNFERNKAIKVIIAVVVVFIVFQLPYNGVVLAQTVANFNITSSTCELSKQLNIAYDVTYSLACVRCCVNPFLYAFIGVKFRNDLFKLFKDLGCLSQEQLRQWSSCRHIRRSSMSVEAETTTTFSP
# B1: antibody 6E1.2 (antibody, human IgG2, lambda, V domains shown)
# VH: QGQLVESGGGVVQPGRSLRLSCAASGFTFRSYGMHWVRQAPGKGLEWVAVIWYDGSKKYYADSVKGRFTISRDNSKNTLFLQMNSLRAEDTAVYYCARDGGIAAFLQDNWFDPWGQGTLVTVSS
# VL: SYELTQPPSVSVSPGQTASITCSGNKLGDKYASWYHQKPGQSPVLVIYQDNKRPSGIPERFSGSNSGNTATLTISGTQTMDEADYFCQAWDRTVVFGGGTKLTVLG
# notes: Human antibody from XenoMouse hybridoma; Light = 26 and heavy = 58 is inferred from the order of the listing
# Molecular target: T1, wild-type human CCR7 (pcDNA3.1 …)
# Experiment: hybridoma screening on cells expressing human CCR7
binder,measurement,value
B1,binding result,binds

# — patent US20170342155A1 (Amgen, published 2017)
